Publication PMC4301871 (2015)
Several values for one entry are separate records, joined by “and”; a condition that tells them apart may be missing. Identical values can stand only once.

T1: LATS2 (Homo sapiens)
T1 chain: RRCPPPPYPKHL

T2: PTCH1-b (Homo sapiens)
T2 chain: EGLWPPPYRPRR

T3: PTCH1-a (Homo sapiens)
T3 chain: RYSPPPPYSSHS

T4: LATS1-a (Homo sapiens)
T4 chain: NRQPPPPYPLTA

T5: LATS1-b (Homo sapiens)
T5 chain: YQGPPPPYPKHL


Tests used:
Assay in all cases: ITC
LATS2 = target: T1, LATS2
PTCH1-b = target: T2, PTCH1-b
PTCH1-a = target: T3, PTCH1-a
LATS1-a = target: T4, LATS1-a
LATS1-b = target: T5, LATS1-b

Binder	Kd (LATS2)	Kd (PTCH1-b)	Kd (PTCH1-a)	Kd (LATS1-a)	Kd (LATS1-b)
YAP-WW1-WW2 165-271 (protein) FEIPDDVPLPAGWEMAKTSSGQRYFLNHIDQTTTWQDPRKAMLSQMNVTAPTSPPVQQNMMNSASGPLPDGWEQAMTQDGEIYYINHKNKTTSWLDPRLDPRFAMNQ	9.2 µM	16.9 µM	47.4 µM and 24.7 µM	33.4 µM	
ASGPLPDGWEQAMTQDGEIYYINHKNKTTSWLDPRLDPRFAMNQ [YAP-WW2 228-271]	8.2 µM		45.8 µM	27 µM	33.9 µM
FEIPDDVPLPAGWEMAKTSSGQRYFLNHIDQTTTWQDPRKAMLSQ [YAP-WW1 165-209]	7.1 µM	13.2 µM	27.6 µM	21.5 µM	3.7 µM
